This is an account of results in paper PMC12431793, “Identification of antibodies induced by immunization with the syphilis vaccine candidate Tp0751” (Vaccine, 2025).

Residue numbers refer to the chain shown, from its start.

Common to all, as to conditions: both partners purified
Experiment [1] deals with T1, Tp0751_(24–237) (Treponema pallidum subsp. pallidum, …, UniProt O83732).
T1 construct: The biotinylated, streptavidin-tetramerised form was used only to stain and sort B cells, not in BLI or ELISA; also called soluble Tp0751_(24–237); mature Tp0751 protein
T1 sequence (O83732 24-237): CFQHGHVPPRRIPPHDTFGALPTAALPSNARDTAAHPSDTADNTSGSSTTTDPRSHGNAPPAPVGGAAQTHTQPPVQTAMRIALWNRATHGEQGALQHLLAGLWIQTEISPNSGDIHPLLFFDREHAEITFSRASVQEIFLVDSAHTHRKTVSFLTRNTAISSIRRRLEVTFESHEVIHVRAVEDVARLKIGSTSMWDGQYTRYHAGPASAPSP
The experiment in a line: BLI; OctetRed, room temperature, shaking at 500 RPM; 40 μg/mL antibody loaded on Protein A capture biosensors; 0.1, 0.7 or 6 μM Tp0751_(24–237) in solution, 5 min association, 5 min dissociation in kinetics buffer.

In a further experiment the target is T2, Tp0751_(115–237) (Treponema pallidum subsp. pallidum, …, UniProt O83732).
T2 construct: Tp0751 of Treponema pallidum, amino acids 115-237 (N-terminal truncation; lipocalin structural fold); also called Tp0751 lipocalin structural/functional domain
T2 sequence (O83732 115-237): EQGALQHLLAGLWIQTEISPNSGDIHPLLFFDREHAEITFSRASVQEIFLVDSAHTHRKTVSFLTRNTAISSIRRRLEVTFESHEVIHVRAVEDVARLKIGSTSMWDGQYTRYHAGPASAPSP
Briefly: ELISA; epitope mapping: 33pM of antibody on plate-coated Tp0751_(24–237), Tp0751_(99–237) or Tp0751_(115–237).

Experiment [2] deals with T1, Tp0751_(24–237). The description is as above.
Another experiment deals with T3, Tp0751_(99–237) (Treponema pallidum subsp. pallidum, …, UniProt O83732).
T3 construct: Tp0751 of Treponema pallidum, amino acids 99-237 (N-terminal truncation; alpha helix cap 99-114 and lipocalin domain 115-237)
T3 sequence (O83732 99-237): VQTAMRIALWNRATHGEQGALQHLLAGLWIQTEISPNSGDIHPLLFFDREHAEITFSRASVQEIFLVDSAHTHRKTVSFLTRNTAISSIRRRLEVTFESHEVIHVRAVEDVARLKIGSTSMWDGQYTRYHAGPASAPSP
The description is as above.

Experiment [3] deals with T1, Tp0751_(24–237). Briefly: ELISA; titration: plates coated with 15 pmol/well Tp0751_(24–237) in 1xTBS pH 7.4; 0.2 pM-33 nM rabbit antibodies serially diluted in 4 % skim milk in TBS, 1 h at room temperature; anti-rabbit IgG-HRP.

B1: 2091E9 (antibody, V domains shown)
VH: QSVEESGGRLVTPGGSLTLTCTVSGFSLSSYVMTWVRQAPGKGLEWIGYIYIDGYTTWYASWVKGRFTISRTSTTVDLKMTSLSTEDTATYFCVRVGATIDFMMRRLDLWGQGTLVTVSS
VL: DVVMTQTPSSVSAAVRGTVTIKCQASPSVYSDYLSWYQQKPGQRPKLLMYGTSTLASGVPSRFKGSGSGTQFTLTISDVQCDDAATYYCAGGFNSGADSFAFGGGTEVVVQ
notes: made as rabbit IgG; source: produced and purified as rabbit IgG by Sino Biological
Take B1: the binding result with Tp0751_(24–237) [1] and in the experiment with Tp0751_(115–237) was “binds” throughout.

B2: 2131F4 (antibody, V domains shown)
VH: QSVEESGGDLVKPEGSLTLTCTASEFSFNTNHYVCWVRQAPGKGLEWLACVAGGGSGATYYATWAKGRFTLSRTSSSTVTLEMTSLAPADTATYFCARVDSTDFNFDLWGPGTLVTVSS
VL: DPVMTQTPSPVSAAVGGTVSISCQSSQIVYNDNWLSWYQQKPGQPPKRLIYGTSNSASGVPSRFKGSGCGTQFTLTISDVQCDDAATYYCQGGYLVGDVYVFGGGTEVVVK
notes: as for B1
B2: the binding result is on record as “binds” with Tp0751_(24–237) [2], “no binding (tested: 33pM of antibody)” with Tp0751_(115–237) and “no binding (tested: 33pM of antibody)” in the experiment with Tp0751_(99–237).

B3: 2101A3 (antibody, V domains shown)
VH: QSLEESGGGLVKPGGTLTLTCKASGFDLSSYYYMCWVRQAPGKGLEWIACTYISSGSTWYASWAKGRFTVSKPSSTTVTLQMTSLTAADTATYFCAREVGSPEYGYYLDLWGPGTLVTVSS
VL: DVVMTQTPASVEAAVGGTVTIKCQASQSISSWLSWYQQKPGQPPKLLIYQASKLASGVPSRFKGSGCGTEYTLTISDLECADGATYYCQTYYGSGSSNYHAFGGGTEVVVK
notes: as for B1
Consider B3, for which the figures for the binding result in the experiment with Tp0751_(115–237), in the experiment with Tp0751_(99–237) and with Tp0751_(24–237) [3] were “no binding (tested: 33pM of antibody)”, “binds” and “binds”, respectively.

B4: 2101D12 (antibody, V domains shown)
VH: QQLEESGGGLVKPGGTLTLTCKASGWDFSSSYWISWVRQAPGKGLEWIAYINTDSLKTYYATWAKGRFTVSKTSSTTVTLQVTSLTAADTATYFCADGAFWGPGTLVTVSS
VL: DVVMTQTPASVSAAVGGTVTINCQASQSINSWLSWYQQKPGQPPKRLINDASTLESGVPSRFKGSGCGTQFTLTISDLECADAATYYCQSHYFSRSIDYYNAFGGGTEVVVK
notes: as for B1
For the molecule B4, the binding result in the experiment with Tp0751_(115–237), in the experiment with Tp0751_(99–237) and in the experiment with Tp0751_(24–237) [3] was “binds” in each case.

B5: 2101B3 (antibody, V domains shown)
VH: QSLEESGGDLVKPGASLTLTCTASGLDFSGYYYICWVRQAPGKGLEWIGCIWPGDGDTDYASWAKGRFTVSKTSSTTVDLKVTTLTAADTATYFCGRLLGSGSAYFNLWGPGTLVTVSS
VL: AVVMTQTPSSVSEAVGGTVTIKCQASQTIGEALAWYQQKPGQPPKLLIYKASTVASGVPWRFKGSGCGSEYTLTISGVQCEDAATYYCQQGYSLTIIDNLFGGGTEVVVE
notes: as for B1
Take B5: the binding result with Tp0751_(24–237) [2], with Tp0751_(115–237) and in the experiment with Tp0751_(99–237) was “binds” each time.

B6: 2092D3 (antibody, V domains shown)
VH: QSVEESGGRLVTPGTPLTLTCTVSGFSLSSYTMSWVRQAPGKGLEWIGVISGSDTLSYATWAKGRFTISKTSTTVDLKITSPTTADTATYFCARDGGYSDYDHAPNIWGPGTLVTVSL
VL: DVVMTQTPASVEAAVGGTVTIKCQASQSIYNYLAWYQQKPGQPPKLLIYQASKVASGVPSRFKGRGSGTQFTLTISDLECADAATYYCQWSFYDSNYIGAFGGGTEVVVK
notes: as for B1
In the case of B6, the binding result is on record as “no binding (tested: 33pM of antibody)” with Tp0751_(115–237), “binds” with Tp0751_(99–237) and “binds” with Tp0751_(24–237) [3].

B7: 2092E3 (antibody, V domains shown)
VH: B6 VH with F26I, S27D, T32A, S51G, G52D, S53M, T55I, L56V, R94G
VL: DVVMTQTPASVEAAVGGTVTIKCHASESIYDYLAWYQQKPGQPPKLLISKASTLASGVPSGFKASGSGTLFTLTISDLECADAATYYCQWSFYDHYYVGAFGGGTEVVVK
notes: as for B1
B7: the binding result was “binds” with Tp0751_(24–237) [2], “no binding (tested: 33pM of antibody)” with Tp0751_(115–237) and “binds” with Tp0751_(99–237).
